Assay results reported in publication PMC5740062, “CRTC1 mediates preferential transcription at neuronal activity-regulated CRE/TATA promoters” (Scientific Reports, 2017).

Target: T1, cAMP-responsive element-binding protein (CREB) (mouse (endogenous in primary cortical …, UniProt Q01147-1 1-341, phosphoserine at 133 (blotted as pCREB after FSK/KCl)))
T1 construct: Precipitated with an anti-CREB antibody and detected on blots as phosphorylated CREB (Ser133); also called pCREB; endogenous CREB; source: endogenous, mouse primary cortical neurons (12 DIV), formaldehyde-crosslinked, in lysate
Experiment: co-IP; endogenous proteins; cortical neurons (12 DIV) treated with vehicle or FSK/KCl, crosslinked with 1% formaldehyde, lysed by sonication (50 mM Tris-HCl pH 8, 1% Triton X-100, 100 mM NaCl, 1 mM MgCl2); 2 mg protein immunoprecipitated overnight at 4 °C with anti-CREB or anti-CRTC1, Dynabeads protein G; blots of CRTC1 and pCREB; percent normalised to the maximum immunoprecipitation with the specific antibody in …
Details: partners not purified

T1 sequence (Q01147 other isoform, or with tags, fused parts or gaps): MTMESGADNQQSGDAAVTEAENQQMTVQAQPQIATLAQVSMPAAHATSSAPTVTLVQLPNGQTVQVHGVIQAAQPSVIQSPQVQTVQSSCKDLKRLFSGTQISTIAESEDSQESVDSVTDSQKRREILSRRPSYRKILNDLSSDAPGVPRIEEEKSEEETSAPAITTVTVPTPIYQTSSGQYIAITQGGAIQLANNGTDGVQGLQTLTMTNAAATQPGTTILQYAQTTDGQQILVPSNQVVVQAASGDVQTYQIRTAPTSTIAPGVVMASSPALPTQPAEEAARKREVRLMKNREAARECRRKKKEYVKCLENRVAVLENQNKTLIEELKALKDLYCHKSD

B1: CREB-regulated transcription coactivator-1 (CRTC1) (natural protein, UniProt Q68ED7 1-630, looked up)
chain: MATSNNPRKFSEKIALHNQKQAEETAAFEEVMKDLSLTRAARLQLQKSQYLQLGPSRGQYYGGSLPNVNQIGSSSVDLAFQTPFQSSGLDTSRTTRHHGLVDRVYRERGRLGSPHRRPLSVDKHGRQADSCPYGTVYLSPPADTSWRRTNSDSALHQSTMTPSQAESFTGGSQDAHQKRVLLLTVPGMEDTGAETDKTLSKQSWDSKKAGSRPKSCEVPGINIFPSADQENTTALIPATHNTGGSLPDLTNIHFPSPLPTPLDPEEPPFPALTSSSSTGSLAHLGVGGAGQGMNTPSSSPQHRPAVVSPLSLSTEARRQQAQQVSPTLSPLSPITQAVAMDALSLEQQLPYAFFTQTGSQQPPPQPQPPPPPPPVSQQQPPPPQVSVGLPQGGPLLPSASLTRGPQLPPLSVTVPSTLPQSPTENPGQSPMGIDATSAPALQYRTSAGSPATQSPTSPVSNQGFSPGSSPQHTSTLGSVFGDAYYEQQMTARQANALSRQLEQFNMMENAISSSSLYNPGSTLNYSQAAMMGLSGSHGGLQDPQQLGYTGHGGIPNIILTVTGESPPSLSKELSSTLAGVSDVSFDSDHQFPLDELKIDPLTLDGLHMLNDPDMVLADPATEDTFRMDRL
notes: also called endogenous CRTC1; source: endogenous, mouse primary cortical neurons (12 DIV), formaldehyde-crosslinked, in lysate
percent of CRTC1 co-immunoprecipitated with anti-CREB (FSK/KCl), relative to its immunoprecipitation with anti-CRTC1: ~37%
